The values that follow come from publication PMC11828899, “Structural insights into human brachyury DNA recognition and discovery of progressible binders for cancer therapy”.

Data set [1] has as its target T1, Brachyury DNA binding domain G177D (Homo sapiens, UniProt O15178 41-224, G177D).
T1 sequence: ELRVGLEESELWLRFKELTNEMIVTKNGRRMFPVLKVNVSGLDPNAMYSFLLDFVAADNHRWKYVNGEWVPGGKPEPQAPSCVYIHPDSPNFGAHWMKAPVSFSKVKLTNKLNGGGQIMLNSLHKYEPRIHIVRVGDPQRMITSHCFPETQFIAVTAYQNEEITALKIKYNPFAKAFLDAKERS
The data set is described as follows: X-ray crystallography; 2.15 A; two protomers per duplex; EMSA: 25 mM HEPES pH 7.4, 75 mM NaCl, 10% glycerol, 0.1% Tween 20, 1 mM TCEP, on ice 10 min; SPR: 10 mM HEPES pH 7.5, 150 mM NaCl, 1 mM DTT, 1% DMSO, temperature not stated. The following applies: protein: recombinant; chain copies: 2; blunt, self-complementary, 2 copies of strand. (A gel shift assay detects complexes by their altered migration in electrophoresis.)

Data set [2] deals with T2, Brachyury DNA binding domain WT (Homo sapiens, UniProt O15178 41-224).
T2 sequence: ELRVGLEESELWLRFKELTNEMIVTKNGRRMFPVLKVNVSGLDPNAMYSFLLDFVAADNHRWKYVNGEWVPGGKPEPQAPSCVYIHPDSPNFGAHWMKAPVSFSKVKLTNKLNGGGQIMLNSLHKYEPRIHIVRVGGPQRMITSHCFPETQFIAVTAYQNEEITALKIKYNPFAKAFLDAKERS
The data set is described as follows: X-ray crystallography; 2.25 A; two protomers per duplex; EMSA: 25 mM HEPES pH 7.4, 75 mM NaCl, 10% glycerol, 0.1% Tween 20, 1 mM TCEP, on ice 10 min; SPR: 10 mM HEPES pH 7.5, 150 mM NaCl, 1 mM DTT, 1% DMSO, temperature not stated. To be noted: protein: recombinant; chain copies: 2; blunt, self-complementary, 2 copies of strand.

For data set [3], the target named is T3, Brachyury full-length WT (Homo sapiens, UniProt O15178 1-435).
T3 sequence: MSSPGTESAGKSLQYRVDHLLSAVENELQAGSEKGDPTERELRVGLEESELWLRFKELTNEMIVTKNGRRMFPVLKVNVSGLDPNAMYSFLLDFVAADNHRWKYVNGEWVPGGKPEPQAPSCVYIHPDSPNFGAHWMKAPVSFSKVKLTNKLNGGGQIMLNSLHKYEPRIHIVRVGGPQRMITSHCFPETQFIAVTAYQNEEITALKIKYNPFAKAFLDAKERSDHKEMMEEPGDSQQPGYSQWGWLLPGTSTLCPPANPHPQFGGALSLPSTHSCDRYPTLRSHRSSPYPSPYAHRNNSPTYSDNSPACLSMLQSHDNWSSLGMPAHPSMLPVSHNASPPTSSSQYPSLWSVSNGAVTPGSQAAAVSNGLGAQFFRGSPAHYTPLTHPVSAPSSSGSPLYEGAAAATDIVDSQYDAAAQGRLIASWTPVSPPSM
The data set is described as follows: EMSA; apparent; Hill slope 2.3; DNA 1-5 nM; EMSA: 25 mM HEPES pH 7.4, 75 mM NaCl, 10% glycerol, 0.1% Tween 20, 1 mM TCEP, on ice 10 min; SPR: 10 mM HEPES pH 7.5, 150 mM NaCl, 1 mM DTT, 1% DMSO, temperature not stated. To be noted: protein: recombinant; tags: C-terminal AVI tag, biotinylated; N-terminal 9His-GST removed with TEV (construct stated for SPR/DSF); chain copies: 2; label: 32P 5' end (EMSA); none stated (SPR); blunt.

Data set [4] addresses T3, Brachyury full-length WT. The data set is described as follows: SPR; protein immobilized; steady-state fit; EMSA: 25 mM HEPES pH 7.4, 75 mM NaCl, 10% glycerol, 0.1% Tween 20, 1 mM TCEP, on ice 10 min; SPR: 10 mM HEPES pH 7.5, 150 mM NaCl, 1 mM DTT, 1% DMSO, temperature not stated. The following applies: protein: recombinant; tags: C-terminal AVI tag, biotinylated; N-terminal 9His-GST removed with TEV (construct stated for SPR/DSF); chain copies: 2; label: 32P 5' end (EMSA); none stated (SPR); blunt. On the technique in general: SPR reads the build-up and loss of mass on a sensor chip optically.

The target in data set [5] is T4, Brachyury full-length G177D (Homo sapiens, UniProt O15178 1-435, G177D).
T4 sequence: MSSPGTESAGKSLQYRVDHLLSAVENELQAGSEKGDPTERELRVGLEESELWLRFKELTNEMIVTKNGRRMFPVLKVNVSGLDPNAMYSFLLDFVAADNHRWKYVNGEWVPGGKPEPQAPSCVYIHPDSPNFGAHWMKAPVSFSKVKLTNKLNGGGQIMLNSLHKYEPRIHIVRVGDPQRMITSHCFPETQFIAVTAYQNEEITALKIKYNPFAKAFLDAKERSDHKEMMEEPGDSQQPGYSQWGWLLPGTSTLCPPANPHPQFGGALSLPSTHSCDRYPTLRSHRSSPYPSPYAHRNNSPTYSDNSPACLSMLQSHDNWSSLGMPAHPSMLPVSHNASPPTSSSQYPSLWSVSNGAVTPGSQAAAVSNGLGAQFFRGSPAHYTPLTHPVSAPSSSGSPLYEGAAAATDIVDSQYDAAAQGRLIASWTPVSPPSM
Described as above. The following applies: protein: recombinant; tags: C-terminal AVI tag, biotinylated; N-terminal 9His-GST removed with TEV (construct stated for SPR/DSF); chain copies: 2; label: 32P 5' end (EMSA); none stated (SPR); blunt.

The target of data set [6] is T4, Brachyury full-length G177D. The data set is described as follows: EMSA; apparent; Hill slope 1.8; DNA 1-5 nM; EMSA: 25 mM HEPES pH 7.4, 75 mM NaCl, 10% glycerol, 0.1% Tween 20, 1 mM TCEP, on ice 10 min; SPR: 10 mM HEPES pH 7.5, 150 mM NaCl, 1 mM DTT, 1% DMSO, temperature not stated. The following applies: protein: recombinant; tags: C-terminal AVI tag, biotinylated; N-terminal 9His-GST removed with TEV (construct stated for SPR/DSF); chain copies: 2; label: 32P 5' end (EMSA); none stated (SPR); blunt.

B1: 26 bp palindromic T-box DNA (dsDNA)
DNA 1: GAATTTCACACCTAGGTGTGAAATTC
DNA 2: GAATTTCACACCTAGGTGTGAAATTC
As to B1, the binding result in data set [1] is listed as “binds”.

B2: 24 bp palindromic T-box DNA (dsDNA)
DNA 1: AATTTCACACCTAGGTGTGAAATT
DNA 2: AATTTCACACCTAGGTGTGAAATT
For the molecule B2, in data set [2], the binding result is reported as “binds”.

B3: TA50 palindromic 50 bp (TA50-F/TA50-R) (dsDNA)
DNA 1: CATGCATGCAGGGAATTTCACACCTAGGTGTGAAATTCCCATTCGTGCGA
DNA 2: TCGCACGAATGGGAATTTCACACCTAGGTGTGAAATTCCCTGCATGCATG
As to B3, the Kd in the data set with Brachyury full-length WT [3] came out at 1.4 nM; with Brachyury full-length WT [4], 14.8 ± 2.4 nM; in data set [5], 17.9 nM; in data set [6], 1.2 nM.
